# From PMC5385343, “Crystal Structure of Glyceraldehyde-3-Phosphate Dehydrogenase from the Gram-Positive Bacterial Pathogen A. vaginae, an Immunoevasive Factor that Interacts with the Human C5a Anaphylatoxin” (Frontiers in Microbiology, 2017)
# B1: D-glyceraldehyde-3-phosphate dehydrogenase from Atopobium vaginae, full-length, hexahistidine-tagged (enzyme)
# chain: MKEDRLPANLAKGESMAVKVAINGFGRIGRLAFRQMFGHEGSEIVAINDLTDPKMLANLLKYDSSQGNYARNHSVVAGEDSITVDGKTIKIYKEADAHNLPWGELNVDVVLECTGFYTSKAKAQAHIDAGAKKVVISAPAGKDLPTIVYNVNHEILTKDDNIISAASCTTNCLAPMAKALNDFAPIQSGIMSTIHAFTGDQMVLDGPHRKGDLRRARAAAINIVPNSTGAAKAIGLVIPELNGKLIGSAQRVPVPTGSTTLLFAVVKSDKEITVDSINAAMKAASDPETFGYNEDPIVSSDIIGMTYGSLFDATQTMVQDLGNGLYQVEVVSWYDNENSYTSQMVRTIKYFEKFVA
# notes: also called AvGAPDH; GAPDH from A. vaginae; source: E. coli Rossetta(DE3)pLysS, purified (HisTrap, Superdex 200)
# How the values were obtained:
# AvGAPDH = target: T1, AvGAPDH (Fannyhessea vaginae, UniProt F1T6A5); assay: X-ray crystal structure, […] Å; assay type: binding; details: crystallised with 0.6 mM NAD+, 0.1 M sodium citrate pH 5.5, 20% PEG 3000; one NAD+ per protomer, active site
# T1 construct: gene gap; full-length, 356 residues, N-terminal His6 tag and TEV site (tag removal not described), pET21b, E. coli Rosetta(DE3)pLysS; homotetramer
# O=CC(O)COP(=O)(O)O = assay: purified protein; details: 40 mM Tris-HCl pH 8.5, 2 mM EDTA, 25 °C, 0.1 μM enzyme, G3P varied 0.6-15 mM, co-substrates NAD+ and Pi, fixed concentrations not given
# [1] = test system: NC(=O)c1ccc[n+]([C@@H]2O[C@H](COP(=O)(O)OP(=O)(O)OC[C@H]3O[C@@H](n4cnc5c(N)ncnc54)[C@H](O)[C@@H]3O)[C@@H](O)[C@H]2O)c1; assay: purified protein; details: 40 mM Tris-HCl pH 8.5, 2 mM EDTA, 25 °C, 0.1 μM enzyme, NAD+ varied 0.03-2 mM, co-substrates G3P and Pi, fixed concentrations not given, varied: cofactor
# crystal structure = target: the molecule itself; assay: crystal structure
molecule,measurement,setting,value
NC(=O)c1ccc[n+]([C@@H]2O[C@H](COP(=O)(O)OP(=O)(O)OC[C@H]3O[C@@H](n4cnc5c(N)ncnc54)[C@H](O)[C@@H]3O)[C@@H](O)[C@H]2O)c1 [NAD^+],"X-ray crystal structure, 2.19 Å",AvGAPDH,NAD^+ molecules are tightly bound in an elongated cleft in all four protomers
AvGAPDH (Fannyhessea vaginae DSM 15829),Km,O=CC(O)COP(=O)(O)O,2600 ± 500 µM
same,Vmax,O=CC(O)COP(=O)(O)O,342000 µM/min/mg
same,kcat,O=CC(O)COP(=O)(O)O,57 ± 6 s⁻¹
same,kcat/Km,O=CC(O)COP(=O)(O)O,22000 ± 5000 M⁻¹ s⁻¹
same,Km,[1],80 ± 30 µM
same,Vmax,[1],186000 µM/min/mg
same,kcat,[1],31 ± 3 s⁻¹
same,kcat/Km,[1],384000 ± 150000 M⁻¹ s⁻¹
B1,stoichiometry N,crystal structure,4
